# Source: publication PMC3589475, “Large-Scale Functional Purification of Recombinant HIV-1 Capsid” (PLoS ONE, 2013)
# Biological target: cross-linked CA 4Mu hexamer (HIV-1 (NL4-3 strain))
# Experiment: SPR; Biacore T100; minimally biotinylated WT CA or CA 4Mu hexamer captured on neutravidin on CM5 chips, CAI injected (100 µM and 3-fold dilutions); 50 mM sodium phosphate pH 7.5, 150 mM NaCl, 0.01% P20; steady-state one-site fit
binder,measurement,value
ITFEDLLDYYGP [CAI peptide],Kd,> 100 µM
